Results as given in patent US20170174769A1 (Regeneron, published 2017).
Residue numbers refer to the chain shown, from its start. Numbers in names are those of the source.

B1: H2aM8093N (antibody, V domains shown)
VH: QVQLVQSGAEVKRPGSSVKVSCKASGDTFSTYAISWVRQAPGQGLEWMGGIIPVFGTTNYAQKFQDRVTITTDESTRTAYMELSSLRSEDTAVYYCAGIAGPDYWGQGTLVTVSS
VL: DIQMTQSPSSLSASVGDRVTITCRASQGIRNYLAWFQQKPGKAPKSLIYLATSLQSGVPSKFSGSGSGTDFTLTISSLQPEDFATYYCQQYYSYPWTFGQGTKVEIK
notes: mouse IgG2 Fc (H2aM prefix)
B2: H2aM8109N (antibody, V domains shown)
VH: QVQVVESGGGVVQPGRSLRLSCAASGFTFSSYGLHWVRQAPGKGLEWVAVIWHDGSHKYYADSVKGRFTISRDNSKNTLYLQMNSLRAEDTAVYYCARDGIPVAEDYYFYGMDVWGQGTTVTVSS
VL: DIQMTQSPSSLSASVGDRVTITCRASQGIRNDLGWYQQKPGKAPKRLIYAASSLQSGVPSRFSGSGSGTEFTLTISSLQPEDFAIYYCLQHNSLTFGGGTKVEIK
notes: mouse IgG2 Fc (H2aM prefix)
B3: H1M8115N (antibody, V domains shown)
VH: QVQLVQSGAEVKKPGSSVKVSCKASGGTFSTYEISWVRQAPGQGLEWMGGIIPVFGTTHYAQKFQDSVTITTDESTGTAFMELSSLKSEDTAVYYCARGGAGGDNWGQGTLVTVSS
VL: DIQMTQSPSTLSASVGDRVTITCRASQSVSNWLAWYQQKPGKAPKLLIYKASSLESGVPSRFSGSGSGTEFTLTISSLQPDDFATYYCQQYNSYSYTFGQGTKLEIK
notes: H1M Fc prefix (mouse Fc)
B4: H2aM8832N (antibody, V domains shown)
VH: QVQLVESGGGVVQPGRSLRLSCAASGFTFSRYGMHWVRQAPGKGLEWVAVIWYDGTNKYYEDSLKGRFTISRDNSKNTLYLQMNSLRAEDSAVYYCARDQGKYIDYWGQGTLVTVSS
VL: AIQMTQSPSSLSASVGDRVTITCRTSQDIRNDLGWYQQKPGKVPNLLIYAASTLQSGVPSRFSGSGSGTDFTLTISSLQPEDFATYYCLQDYNYPFTFGPGTKVDIK
notes: mouse IgG2 Fc (H2aM prefix)
B5: H4H8837P (antibody, V domains shown)
VH: QVQLVESGGGVVQPGRSLRLSCAASGFTFNSYAMHWVRQAPGMGLEWVAVISSDGSNKYYADSVRGRFTVSRDNSKNTLYLQMNSLRSEDTAVYYCAKDGRGYSSFSHFGMDVWGQGTTVTVSS
VL: DIQMTQSPSTLSASVGDRVTITCRASQSIGSWLAWYQQKPGKAPKLLIYKTSSLESGVPSRFSGSGSGTEFTLTISSLQPDDFASYYCQQYNSYSFGQGTKVEIK
notes: human IgG4 Fc (H4H prefix)
B6: H4H8852P (antibody, V domains shown)
VH: QVQLQESGPGLVKPSETLSLTCTVSGGSISSYYWSWIRQPPGKGLEWIGYIYSSGIIKYNPSLKSRVTISADTSKNQFSLKLSSVTAADTAVYYCARHGIFGVMEYFQRWGQGTLVTVSS
VL: DIQMTQSPSSLSASIGDRVTITCQASQDIGNFLNWYQQKPGKAPTLLIYDASNMETGVPSRFSGSGSGTYFTFTISSLQPEDVATYYCQQYDNLPLTFGGGTKVEIK
notes: human IgG4 Fc (H4H prefix)
B7: H4H8856P (antibody, V domains shown)
VH: B6 VH with G49A, S53Y, I57T
VL: B6 VL with G30S, A51V, S67Y, Y70D, F73L, Q79K, V83I, L94I
notes: human IgG4 Fc (H4H prefix)
B8: H4H8871P (antibody, V domains shown)
VH: B6 VH with G27A
VL: B6 VL with Q37H, S63R, T74I
notes: human IgG4 Fc (H4H prefix)
B9: H4H8878P (antibody, V domains shown)
VH: QVQLVESGGGVVQPGRSLRLSCAASGFTLNTYGMHWIRQTPGKGLEWVSLISYDETKEYYVDSVKGRFTISRDNSKNTLYLQMNSVRVEDTAVYYCAKPLTGSTDYYYGLDVWGQGTTVTVSS
VL: DIQMTQSPSYVSASVGDRVIITCRASQDISSWLAWYQQKPGKAPKLLIYVTSSLESGVPSRFSGSGSGTDFTLTISGLQPEDFATYYCQQVKSFPPTFGPGTKVDIK
notes: human IgG4 Fc (H4H prefix)
B10: H4H8881P (antibody, V domains shown)
VH: QVQLVQSGAEVKKPGASVKVSCKASGYTFTSYVIHWVRQAPGQRLEWMGWSNAANGDTKYSQEFQDRVTFTRDTSASTAYMELSSLRSEDMAVYYCARWNWNYGAFDIWGQGTMVTVSS
VL: DIQMTQSPSSLSASVGDRVTITCQASQDINNYLHWYQQKSGKAPNLLIYDASILETGVPSRFSGSGSGTDFTFTISSLQPEDIATYYCQQYDNLPYTFGQGTKLEIK
notes: human IgG4 Fc (H4H prefix)
B11: H4H8859P (antibody, V domains shown)
VH: EVQLVESGGSVVRPGGSLRLSCAASGFTFDVYGMSWVRQAPGKGLEWVSGINWIGGSTGYADSVKGRFTISRDNAKNSLYLQMNSLRAEDTALYYCTREEDYWGQGTLVTVSS
VL: DVVMTQSPLSLAVTLGQPASISCRSSQSLVYSDGNTYLNWFQQRPGQSPRRLFYKVSNRDSGVPDRFSGSGSGTDFTLKISRVEAEDVGIYYCMQGIKWPLTFGGGTKVEIK
notes: human IgG4 Fc (H4H prefix)
B12: H1H8899P (antibody, V domains shown)
VH: EVQLVESGGGLVQPGGSLRLSCAASGFTFSSHWMSWVRQAPGKGLEWVANIKQDGSEKYYVDSVKGRFTISRDNAKNSLYLQISSLRAEDTAVYYCASNWNFLFDFWGQGTLVTVSS
VL: not shown

molecular target: T1, human KLB and human FGFR1c co-expressed on HEK293/hKLB/hFGFR1c/SRE-luc cells (human, UniProt Q86Z14 1-1044; P11362 22-822); test: cell-based or functional assay

Binder | EC50, SRE-luc activation without ligand [pM] | Maximum Activation (%) without ligand [%]
B1 | 68 | 1
B2 | 3300 | 0.5
B3 | 53 | 1
B4 | 750 | 4
B5 | 120 | 1
B6 | 210 | 5
B7 | 300 | 6
B8 | 180 | 5
B9 | 410 | 1
B10 | 72 | 7

molecular target: T2, full-length human FGFR1c on HEK293/hFGFR1c/SRE-luc cells (human, UniProt P11362 22-822); test: FACS on stable HEK293 cells
T2 construct: amino acids 1-733 of NP_075593
Procedure: (§1) To determine binding specificity of the monoclonal anti-KLB/FGFR1c antibodies, the antibodies were tested in a fluorescence-activated cell sorting (FACS) binding assay to cell lines expressing human FGFR1c, human KLB, and both human FGFR1c and human KLB. HEK293 cell lines were generated that stably express full-length human FGFR1c (hFGFR1c; SEQ ID NO:433) or full-length human KLB (hKLB; SEQ ID NO:434) or both human FGFR1c and human KLB, along with a luciferase reporter [SRE (serum response element)-luciferase, SA Bioscience, #CLS-010L]. The resulting cell lines, referred to as HEK293/hFGFR1c/SRE-luc, HEK293/hKLB/SRE-luc, and HEK293/hKLB/hFGFR1c/SRE-luc, respectively, were maintained in DMEM supplemented with 10% FBS, NEAA, penicillin/streptomycin, 1 μg/mL puromycin and […] hygromycin B, 1 μg/mL puromycin and 500 μg/mL G418, or all three antibiotics.
(§2) For the FACS analysis, HEK293 parental, HEK293/hFGFR1c/SRE-luc, HEK293/hKLB/SRE-luc, and HEK293/hKLB/hFGFR1c/SRE-luc cells were dissociated and plated onto 96-well v-bottom plates at 5 x 10⁵ cells/well in PBS containing 1% FBS. […] Cells were filtered and subsequently analyzed on a Hypercyte Flow Cytometer (Intellicyt Corp.). Unstained and secondary antibody alone controls were also tested for binding to all cell lines. The results were analyzed using FlowJo version 9.52 software and geometric mean (Geom. Mean) of fluorescence for viable cells was determined. Geom. mean of fluorescence for each antibody was then normalized to Geom. mean of unstained cells to obtain relative binding of antibody (binding ratios) per each cell type.

T2 sequence (P11362 other isoform, or with tags, fused parts or gaps limits assumed): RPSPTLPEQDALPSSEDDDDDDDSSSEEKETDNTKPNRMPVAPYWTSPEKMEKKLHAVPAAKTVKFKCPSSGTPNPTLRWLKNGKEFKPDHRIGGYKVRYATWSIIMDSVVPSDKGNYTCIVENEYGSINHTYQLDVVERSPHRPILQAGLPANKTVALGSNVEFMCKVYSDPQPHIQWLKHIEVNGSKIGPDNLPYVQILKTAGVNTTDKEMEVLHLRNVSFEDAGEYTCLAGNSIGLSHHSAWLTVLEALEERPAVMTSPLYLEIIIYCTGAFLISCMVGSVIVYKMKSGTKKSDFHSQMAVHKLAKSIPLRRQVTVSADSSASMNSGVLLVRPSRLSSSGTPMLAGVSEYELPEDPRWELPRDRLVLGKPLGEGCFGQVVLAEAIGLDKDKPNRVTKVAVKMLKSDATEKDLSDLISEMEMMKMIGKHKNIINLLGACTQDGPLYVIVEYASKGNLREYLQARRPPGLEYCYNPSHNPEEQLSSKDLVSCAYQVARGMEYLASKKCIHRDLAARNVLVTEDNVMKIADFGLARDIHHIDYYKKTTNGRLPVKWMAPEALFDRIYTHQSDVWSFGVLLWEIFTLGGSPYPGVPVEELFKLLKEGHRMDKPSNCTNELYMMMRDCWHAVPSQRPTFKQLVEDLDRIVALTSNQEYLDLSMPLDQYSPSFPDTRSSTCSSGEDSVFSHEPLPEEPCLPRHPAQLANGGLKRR

Binder | binding ratio to unstained cells [fold]
B1 | 1
B2 | 7
B3 | 2
B4 | 6
B5 | 2
B6 | 1
B7 | 1
B8 | 1
B9 | 2
B10 | 2
B11 | 5
B12 | 5

molecular target: T3, full-length human KLB on HEK293/hKLB/SRE-luc cells (human, UniProt Q86Z14 1-1044); test: FACS on stable HEK293 cells
T3 construct: amino acids 1-1044 of NP_783864.1
T3 sequence: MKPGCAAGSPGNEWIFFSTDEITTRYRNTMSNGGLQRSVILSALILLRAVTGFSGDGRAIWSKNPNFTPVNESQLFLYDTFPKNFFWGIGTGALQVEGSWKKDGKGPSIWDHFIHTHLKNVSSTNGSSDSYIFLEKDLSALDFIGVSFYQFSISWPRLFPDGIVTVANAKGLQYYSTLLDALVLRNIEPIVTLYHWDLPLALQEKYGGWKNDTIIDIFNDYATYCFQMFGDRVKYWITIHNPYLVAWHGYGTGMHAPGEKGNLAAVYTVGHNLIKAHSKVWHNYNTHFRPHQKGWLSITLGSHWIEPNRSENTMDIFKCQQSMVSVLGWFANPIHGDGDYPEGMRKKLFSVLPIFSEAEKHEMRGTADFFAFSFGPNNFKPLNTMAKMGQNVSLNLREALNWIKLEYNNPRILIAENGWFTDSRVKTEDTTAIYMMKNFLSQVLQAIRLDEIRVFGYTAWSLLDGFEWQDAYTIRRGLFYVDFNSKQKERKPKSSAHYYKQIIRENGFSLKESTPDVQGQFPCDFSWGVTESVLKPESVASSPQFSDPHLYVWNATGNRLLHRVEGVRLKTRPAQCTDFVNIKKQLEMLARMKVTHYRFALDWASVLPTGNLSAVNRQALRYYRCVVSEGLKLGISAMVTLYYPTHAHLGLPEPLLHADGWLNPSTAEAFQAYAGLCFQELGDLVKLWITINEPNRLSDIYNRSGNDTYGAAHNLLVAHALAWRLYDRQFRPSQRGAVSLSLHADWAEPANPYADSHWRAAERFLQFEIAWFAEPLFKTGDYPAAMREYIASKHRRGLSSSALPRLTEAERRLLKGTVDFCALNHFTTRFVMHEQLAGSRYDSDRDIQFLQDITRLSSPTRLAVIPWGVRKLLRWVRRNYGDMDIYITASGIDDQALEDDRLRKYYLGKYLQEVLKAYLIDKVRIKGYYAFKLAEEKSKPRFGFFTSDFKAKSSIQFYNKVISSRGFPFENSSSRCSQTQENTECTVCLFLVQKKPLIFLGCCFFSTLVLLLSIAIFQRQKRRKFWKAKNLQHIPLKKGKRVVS
Procedure: as §1, §2

Binder | binding ratio to unstained cells [fold]
B1 | 15
B2 | 21
B3 | 13
B4 | 2
B5 | 13
B6 | 7
B7 | 5
B8 | 7
B9 | 11
B10 | 15
B11 | 5
B12 | 3

molecular target: T1, human KLB and human FGFR1c co-expressed …; test: FACS on stable HEK293 cells
Procedure: as §1, §2

Binder | binding ratio to unstained cells [fold]
B1 | 41
B2 | 58
B3 | 33
B4 | 7
B5 | 33
B6 | 33
B7 | 30
B8 | 33
B9 | 35
B10 | 35
B11 | 4
B12 | 4
